Several values for one entry are separate records, joined by “and”; a condition that tells them apart may be missing. Identical values can stand only once. Like-named read-outs stand apart in the source and are kept apart here.

Test [1] deals with 纯化的H7N9病毒HA蛋白 (H7N9病毒).
In test [2] the target is H7N9病毒Nanjing-06病毒株的HA蛋白 (H7N9病毒). The test can be described thus: cell-based or functional assay.
The target of test [3] is H7N9病毒Suzhou-03病毒株的HA蛋白 (H7N9病毒). The test is described as follows: cell-based or functional assay.
The target in test [4] is H7N9病毒Wuxi-01病毒株的HA蛋白 (H7N9病毒). The test can be described thus: cell-based or functional assay.
Test [5] has as its target H7N9病毒Wuxi-02病毒株的HA蛋白 (H7N9病毒). The test can be described thus: cell-based or functional assay.
In test [6] the target is 纯化的H7N9病毒HA蛋白 (H7N9病毒). The test can be described thus: ELISA, HA-coated plate, expression supernatant diluted 1:20, anti-human Fc-HRP. (In general: An ELISA detects its analyte on a solid surface through an enzyme-linked reagent.)
The target of test [7] is 纯化的H7N9病毒HA蛋白 (H7N9病毒). The test can be described thus: ELISA, HA-coated plate, expression supernatant diluted 1:40, anti-human Fc-HRP.
For test [8], the target named is 纯化的H7N9病毒HA蛋白 (H7N9病毒). The test can be described thus: ELISA, HA-coated plate, expression supernatant diluted 1:80, anti-human Fc-HRP.
Test [9] addresses 纯化的H7N9病毒HA蛋白 (H7N9病毒). The test is described as follows: ELISA, HA-coated plate, expression supernatant diluted 1:160, anti-human Fc-HRP.
Test [10] has as its target 纯化的H7N9病毒HA蛋白 (H7N9病毒). The test is described as follows: ELISA, HA-coated plate, expression supernatant diluted 1:320, anti-human Fc-HRP.
In test [11] the target is 纯化的H7N9病毒HA蛋白 (H7N9病毒). The test can be described thus: ELISA, HA-coated plate, expression supernatant diluted 1:640, anti-human Fc-HRP.

B1: 抗H7N9病毒的单克隆抗体mAb6137 (antibody, V domains shown)
VH: EVQLVESGGGLVQPGRSLRLSCAASGFIFDDYAMHWVRQAPGKGLEWVSGISWNNNNRAYADSVKGRFTISRDSAKNSLYLQMNSLRAEDTALYYCAKDILSLNMVRGGDEYYGIDVWGQGTTVTVSS
VL: DIQLTQSPSSLSASVGDRVTITCQASQDINNYLNWYQQKPGKAPKLLIFDASNLETGVPSRFSGSGSGTDFTFTISSLQPEDIATYYCQQYGSLLTFGGGTKVDIKR
Turning to B1, the OD450 is 0.211 OD450 and 0.153 OD450 in the test with 纯化的H7N9病毒HA蛋白 (H7N9病毒) [1]; 2.06 OD450 with 纯化的H7N9病毒HA蛋白 (H7N9病毒) [6]; 1.91 OD450 in the test with 纯化的H7N9病毒HA蛋白 (H7N9病毒) [7]; 1.37 OD450 with 纯化的H7N9病毒HA蛋白 (H7N9病毒) [8]; 0.971 OD450 with 纯化的H7N9病毒HA蛋白 (H7N9病毒) [9]; 0.584 OD450 with 纯化的H7N9病毒HA蛋白 (H7N9病毒) [10]. The OD450 with 纯化的H7N9病毒HA蛋白 (H7N9病毒) [11] came to 0.35 OD450. Besides, the 中和100×TCID50病毒需要的抗体质量 in [2] came out at 20 ng; in test [3], 40 ng; in test [4] it was 40 ng; in [5], 80 ng.

These data come from patent publication CN107011436A.
